Experiments:
[1] = tested on: Androgen Regulated Genes; assay: Microarray analysis of EBP1 and vector transfected C81 cells; format: cell-based, human; conditions: EBP1 transfected C81 cells vs vector control
Method: Microarray Analysis and Bioinformatics. RNA was prepared using the Trizol Reagent as previously described (8). Microarray processing and data analysis was performed at Genome Explorations (Nashville, Tenn.). U133A oligonucleotide arrays (Affymetrix) containing ˜33,000 full length annotated genes together with additional probe sets designed to represent EST sequences were used for the analysis. Only genes with a minimum expression level of 500 were included in this analysis. […] Oncomine analyses were performed by using Oncomine 3.0 (www.oncomine.org). Real Time Quantitative Reverse-Transcription PCR. Both cell culture samples and a commercial panel of cDNAs from normal prostate and prostate tumors (TissueScan, Origene, Rockville, Md.) were examined. The method of Nakanishi et al. (15) was used as previously described. Real-time quantitative RT-PCR was performed on the LightCycler® (Roche) platform. The following forward and reverse primers were selected using Primer Express software and synthesized by the Core Laboratory of University of Maryland School of Medicine: Ebp1, sense: 5′-GCA CGC CAA TAG AAG G-3′ (SEQ ID NO: 16) and antisense: 5′-GTA AAC GGC ATG GCA TC-3′ (SEQ ID NO: 17) kallikrein-2 sense: 5′-CAT CCA GTC TCG GAT TG-3′ (SEQ ID NO: 18) and antisense: 5′-CTC ATA TTG TAG AGC GGG T-3′ (SEQ ID NO: 19), TSPY, sense: 5′-CAGGGCTTCTCATTCCACTC-3′ (SEQ ID NO: 20) and antisense: 5′-CCATCATATTCAACTCAACAA CTGG-3′ (16; SEQ ID NO: 21), AGR2, sense: 5′-ATTGGCAGAGCAGTTTCTCC-3′ (SEQ ID NO: 22) and antisense, 5′-GAGCTGTATCTGCAGGTTCGT (17; SEQ ID NO: 23) 13-Actin, sense: 5′-GCTATCCAGGCTGTGCTATC-3′ (SEQ ID NO: 24) and antisense 5′-TGT CAC GCA CGA TTT CC-3′ (SEQ ID NO: 25). A SYBR®Green PCR Kit was used as per the manufacturer's instructions (Applied Biosystems, Foster City, Calif.) and the analyses were performed in duplicate or triplicate.

[2] = tested on: C81 cells; assay: HRG-induced growth of C81 transfectants; format: cell-based, human; conditions: ectopic expression of EBP1, androgen-free media
Method: FIG. 6A-C. EBP1 overexpression inhibits the response to HRG A. EBP1 and vector control transfected cells were plated in complete media at 5×10^3 cells/well for one day. The next day, cells were switched to steroid reduced-media and HRG added at the indicated concentrations. Total cell numbers were determined seven days later by MTT assay. Each point represents mean±S.E. of 6 wells. Data is representative of three experiments. B. AKT activation in response to HRG C81-EBP1 or vector control cells were serum starved overnight and then treated with HRG (20 ng/ml) for the indicated times (mm). Cell lysates were immunoblotted with antibody to phospho-AKT or total AKT as indicated. C. […]
Western Blot Analysis. […] For soft agar growth assays, increasing concentrations of cells (as indicated) were plated in 35 mm Petri dishes in 0.3% agar in complete media and colonies were counted after 10 days of incubation (21). […] Relative cell growth was determined using a Promega Proliferation Reagent (Promega, Madison Wis.) as per manufacturer's instructions with absorbance being read at […] using a Dynex plate reader. […] Luciferase activity was determined using the Promega Dual luciferase assay kit as described by the manufacturer. […] Tumors were measured with calipers. Tumor volumes were calculated by the formula width^2×length/2 […]. Mean tumor volume±S.D. were calculated and plotted against time. […]

B1: EBP1: ErbB3 binding protein (SEQ ID NO: 2), AR corepressor, here ectopically expressed in cancer cells by stable transfection of an expression plasmid (protein, listed as Homo sapiens)
chain: MSGEDEQQEQTIAEDLVVTKYKMGGDIANRVLRSLVEASSSGVSVLSLCEKGDAMIMEETGKIFKKEKEMKKGIAFPTSISVNNCVCHFSPLKSDQDYILKEGDLVKIDLGVHVDGFIANVAHTFVVDVAQGTQVTGRKADVIKAAHLCAEAALRLVKPGNQNTQVTEAWNKVAHSFNCTPIEGMLSHQLKQHVIDGEKTIIQNPTDQQKKDHEKAEFEVHEVYAVDVLVSSGEGKAKDAGQRTTIYKRDPSKQYGLKMKTSRAFFSEVERRFDAMPFTLRAFEDEKKARMGVVECAKHELLQPFNVLYEKEGEFVAQFKFTVLLMPNGPMRITSGPFEPDLYKSEMEVQDAELKALLQSSASRKTQKKKKKKASKTAENATSGETLEENEAGD
modifications: FLAG tag
- Fold Decrease, AGR2 [1]: 7.1
- Fold Decrease, Androgen regulated serine protease TMPRSS2 [1]: 4.0
- Fold Decrease, Prostate Cancer overexpressed POV [1]: 5
- Fold Decrease, Prostate Differentiation Factor mRNA [1]: 5.4
- Fold Decrease, Prostate Specific Antigen [1]: 5.5
- Fold Decrease, Prostatic Kallikrein 2 [1]: 5.4
- Fold Decrease, TSPY [1]: 9.5
- ability of C81 cells to grow in response to HRG [2]: completely abrogated

— patent US7838495B2, “Compositions and methods of use of EPB1, and ErbB3 binding protein” (University of Maryland, Baltimore, priority 2007, dated 2010)
